Experimental data published in a protein production outcome set (Wang et al. 2014).

Assay: label from the status in PepcDB records

Sequence	protein production
MARVVVDAQAARAIGKGAMIVFKKGVVRVEGDIKPGDIVEVYTRGGKFLGKGFANPNSNIMVRIVTKDKDVEINKDLFKRRIKKANEYRKKVLKYTNVYRMVYGEADYLPGLIVDRFNDIASLQISSAGMERFKLDVAEAIMEVEPGIETVFEKNTGRSRRREGLPEIERVLLGKEKYRTIIQEGRAKFIVDMRGQKTGFFLDQRENRLALEKWVQPGDRVLDVFTYTGGFAIHAAIAGADEVIGIDKSPRAIETAKENAKLNGVEDRMKFIVGSAFEEMEKLQKKGEKFDIVVLDPPAFVQHEKDLKAGLRAYFNVNFAGLNLVKDGGILVTCSCSQHVDLQMFKDMIIAAGAKAGKFLKMLEPYRTQAPDHPILMASKDTEYLKCLFLYVEDMR	not failed
PFYYRLHFCDTMELFIETLTGTCFELRVSPFETVISVKAKIRRLEGIPICRQHLIWNNMELENDYCLNDYNISEGCTLKLVLAMRGGPINTRRVPTDDPLR	failed
MGTTVMVPIYTSTAAASPYSINLASMPPKTVLSKGDEEIAAIALPRQPKFYDLKTADGIPYSHIALLHSNNVLATTVQQTCIRYRDESTVCQFCAIEKSLDAGRTITRKLPEQLAEVTEAAVRLDGIEQVIMTTGTPNSGDRGAAYLTKCAAAIKARVNIPIQAQCEPPDDFIWFERMKAAGVDSLGMHLEAVDPDVRAKIMPGKAEVPVSYYYEAYEAAVKVFGWGQVSTYLLAGLGDSFETLVEASEKLVNMGVYPFVVPFVPISETPLANHPAPDSDFMFALYQRVGTIIKQSQISSVDMKAGCAKCGACSALSTFAKLEHHHHHH	failed
MKMISTIQKKETVMVAPIPAKRGRKPAVATAPATGQVQSLTRGLKLLEWIAESNGSVALTELAQQAGLPNSTTHRLLTTMQQQGFVRQVGELGHWAIGAHAFMVGSSFLQSRNLLAIVHPILRNLMEESGETVNMAVLDQSDHEAIIIDQVQCTHLMRMSAPIGGKLPMHASGAGKAFLAQLSEEQVTKLLHRKGLHAYTHATLVSPVHLKEDLAQTRKRGYSFDDEEHALGLRCLAACIFDEHREPFAAISISGPISRITDDRVTEFGAMVIKAAKEVTLAYGGMR	not failed
MPYTLQHLESEAALAASFDLMRVLRPHLTSPAAYVAQWARQTEQGYRLLAAWDAERIVGLAGYRELENLLYGRFIYVDDLVVSPDLQRSGLGARLLSAVRDEAVQRQCEHFVLDTGLHMPLAQRFYFRQGLLARGMHFTQRLE	failed
MTTMVNVDTLPEYEKSQIKRALELGTVMTVFNARKSTPERRTVQMIMETRQVAWSKTADKIEGFLDIMEIKEIRPGKNSKDFERAKAVRHKAECCFTILYGTQFVLSTLSLATDSKEDAVKWLSGLKILHQEAMSASTPTMIESWLRKQIYSVDQTRRNSISLRELKTILPLVNFKVSGIKFLKDKLVEIGAQKDELSFEQFHLFYKKLMFDQQKSILDEFKKDSSVFILGNTDRPDASAVYLQDFQRFLLHEQQELWAQDLNKVRERMTKFIDDTMRETAEPFLFVDEFLTYLFSRENSIWDEKYDAVDMQDMNNPLSHYWISSSHNTYLTGDQLRSESSTEAYIRCLRAGCRCIELDCWDGPDGKPIIYHGWTRTTKIKFDDVVQAIRDHAFVTSSFPVILSIEEHCSVEQQRHMAKVFKEVLGDMLLTKPTEASADQLPSPSQLREKIIIKHKKLGPKGDVDVNVEDKKDEHKPQGELYMWDSIDQKWTRHYCAIADAKLSFGDDIEQAVEEEPVQDTPPTELHFGEKWFHKKVESRTSAEKLLQEYCAETGAKDGTFLVRESETFPNDYTLSFWRSGRVQHCRIRSTMENGVMKYYLTDNLTFNSIYALIQHYREAHLRCAEFELRLTDPVPNPNPHESKPWYYDSLSRGEAEDMLMRIPRDGAFLIRKREGTNSYAITFRARGKVKHCRINRDGRHFVLGTSAYFESLVELVSYYEKHALYRKMRLRYPVTPELLERYNMERDINSLYDVSRMYVDPSEINPSMPQRTVKALYDYKAKRSDELTFCRGALIHNVSKEPGGWWKGDYGTRIQQYFPSNYVEDISAGDAEEMEKQIIEDNPLGSLCKGILDLNTYNVVKAPQGKNQKAFVFILEPKKQGDPPVEFATDRVEELFEWFQSIREITWKMDTKENNMKYWERNQSIAIELSDLVVYCKPTSKTKDHLENPDFREIRSFVETKADSIVRQKPVDLLRYNQKGLTRVYPKGQRVDSSNYDPFRLWLCGSQMVALNFQTPDKYMQMNHALFSLNGRTGYVLQPESMRSEKYDPMPLESQRKILMTLTVKVLGARHLPKLGRSIACPFVEVEICGAEYDSNKFKTTVVNDNGLSPVWAPTQEKVTFEIYDPNLAFLRFVVYEEDMFSDPNFLAHATYPIKGIKSGFRSVPLKNGYSEDIELASLLVFCEMRPVLESEEELYSSCRQLRRRQEELNNQLFLYDTHQNLRGANRDALVKEFNVNENQLQLYQEKCNRRLREKRVSNSRFYS	not failed
MITKVTARNNKITPVELLNQKFGNKINLGNFADAVFTDAAFKNVAGIANLPMKAPVMQVLMENCIVSKYLKQFVPDRSVCFVEEGQKFYIVLEDGQKIEVPEDVNKALKATVSDVKHWAGYLTEDGEHVIDLLKPAPGPHFYVNLLIGNRLGFKRTLQTTPKSVVDRFGRGSFRSHAATQVLATRFDMRQEENGFPANRQFYLYEDGKQIFYSALIDDNIVEATCKHSCNRTVIKYKTACNLEITRTIFLVPHKKGFPLATELQRIEIKNASDKARNLSITYTGMFGTGAVHAIFEDVTYTNVIMQSAALYNDKGEFIGITPDYYPEEFKQDTRFVTMIVRNGDEKSFPQSFCTDYNDFVGTGTLEHPAGGCNLNNKLNRKGPGFFALGAPFTVEPGKTVIIDTFTGLSSSKDNENYSDAVMLRELDNLLRYFEKSESVEETLNEIINFHENYGKYFQFNTGNKLFDSGFNRNLAFQVLYQTFMSRSFGQTQKGYREIGFREIQDLFASMYYFINIGYQDFVKELLFEWTANVYKMGYANHNFYWVGKQPGLYSDDSLWLLQAYYRYIIYTKDTSVLNEEVPVADGNNEKRAVRETLKAIIQYSACISVGDHGLPLLDLADWNDCLKIASNSIDGATKEKLYYEQLKKTNGKYGDRFMSDYSESVMNAFLLKLAIDHLAEIATLDNDTQLAQQMSELSKEVTDRIQKHAWKENFFARVLINRYKDGSYTYLGAKGDKLSADPNIDGVYFLNSFAWSVLSDVATDEQIAIMVDVIKKHLLTPYGLRLVTPADLNKIANDTATGHYFFGDRENGAVFKHASMMAVAALIKAAKKVKDNELAKEMARIAYFMIDLVLPYKNLENPFQVAGNPRICTQYINTDTGENIGPLLSGTATWLNLNLISLAGIEYTRDGISFNPILREEETQLNFTLKAPKCSYKFSITKPVGFARMESSEYELFVDGQKIDNTVIPMYTDEKEHIVTLKFK	not failed
MRYSLFKNYLPKEEVPEIRKELIKLALPAMGENVLQMLFGMADTAFLGHYSWKAMSGVGLSNQVFWVVQVVLIAASMGATVTIANAIGAGNRKAVRSLAWNSVFLAIFTGVILTALTPLSDVLINIFPNLEGEIESSAKEYLKVILSGSMGFSIMAVFSAMLRGAGDTRTPMIVTGLTNFLNIFLDYAMIFGKFGFPEMGVRGAAVATILSRFVGAGILTYVIFKREEFQLRKGLVPPKWSSQKEILRVGFPTAIENFVFSTGVLMFANILLIAGAEAYAGHRIGINVESLSFMPAFGISVAITTLVGRYNGMGNKEHVLGVIRQGWILSLLFQVTVGIIIFLFPEPLIRIFTSDPQIIEISKLPVKIIGLFQFFLAIDSTMNGALRGTGNTLPPMIITFISIWTARLPVAFVMVKYFQLGLLGAWIGMIADIIFRSTLKLLFFLSGKWEKRAVLTRERVKELG	failed
MSTDNLLQPKLIEATLGDYPVIQNMARFYVYDMSRYCGFISEEWTCPPDGLYESYDFKIYFTDPERKAFLIQIDNELAGFALLNKFGIQAVDWSMGEFFILAKFQGKGIGQSVAHQLWRTHPGEWEISVIPENIPALSFWRQAVMTYTL	not failed
MKILVIGAGPAGLVFASQLKQARPLWAIDIVEKNDEQEVLGWGVVLPGRPGQHPANPLSYLDAPERLNPQFLEDFKLVHHNEPSLMSTGVLLCGVERRGLVHALRDKCRSQGIAIRFESPLLEHGELPLADYDLVVLANGVNHKTAHFTEALVPQVDYGRNKYIWYGTSQLFDQMNLVFRTHGKDIFIAHAYKYSDTMSTFIVECSEETYARARLGEMSEEASAEYVAKVFQAELGGHGLVSQPGLGWRNFMTLSHDRCHDGKLVLLGDALQSGHFSIGHGTTMAVVVAQLLVKALCTEDGVPAALKRFEERALPLVQLFRGHADNSRVWFETVEERMHLSSAEFVQSFDARRKSLPPMPEALAQNLRYALQRLEHHHHHH	not failed
MDTRKNVSGAERKIWSLIRDCSGKLEGVTETSVLEVLLIVSRVLGIRKEDLFLKDLGVSPTEEKRILELVEKRASGYPLHYILGEKEFMGLSFLVEEGVFVPRPETEELVELALELIRKYGIKTVADIGTGSGAIGVSVAKFSDAIVFATDVSSKAVEIARKNAERHGVSDRFFVRKGEFLEPFKEKFASIEMILSNPPYVKSSAHLPKDVLFEPPEALFGGEDGLDFYREFFGRYDTSGKIVLMEIGEDQVEELKKIVSDTVFLKDSAGKYRFLLLNRRSS	not failed
SATHGQTCARPMCIPPSYADLGKAARDIFNKGFGFGLVKLDVKTKSCSGVEFSTSGSSNTDTGKVTGTLETKYKWCEYGLTFTEKWNTDNTLGTEIAIEDQICQGLKLTFDTTFSPNTGKKSGKIKSSYKRECINLGCDVDFDFAGPAIHGSAVFGYEGWLAGYQMTFDSAKSKLTRNNFAVGYRTGDFQLHTNVNDGTEFGGSIYQKVCEDLDTSVNLAWTSGTNCTRFGIAAKYQLDPTASISAKVNNSSLIGVGYTQTLRPGVKLTLSALVDGKSINAGGHKVGLALELEA	not failed
QAEMTQRMQQLEALNDLNRAILAASDAEQIAQIGLRSLRRQVPFWGATAMLIDWESSCARVLAIERAPGASYDPGQRLSLVSYGMEDLERMKRGETCVVTDLGQIPRRALTLERLYQQGIQSYARIPLLAEGRLLGMLNLASDAVGAFDAAQLDVAQAYARHLAVSLQQSLL	failed
MGKKNPNARHTDAATPLTTDDSNSSSVSRRESATESKSASESESSPPRSNTKQSRTHKNVKASGKATVSSSSDSDQAVANSSANDEEKEPVCKIRIVPLEKLLASPKTKERPSRGSQQKNVTINDSSDEEPLKGSKLVLPARKSRNKNAS	failed
SLRADKPKCSIQNFFIPALGKDPNSRDNTTLNFMVRCDNPNKDKGIYYDDVHLNFSTINTTKINSSALVLVGNYTVPKFYQGHKKKAKKWGQVKPLNNQTVLRAVLPNGSAVFRLDLKTQVRFKIVFWKTKRYGVEVGADVEVNGDGVKAQKKGIKMKKS	not failed
MSHTKIMSTDQLETQITELDNLPEHREIVTFMRRSAPLNTSQRSALEQYQDLILEYPVGDLRQHFEHPEHPLTVEIGFGMGRSLVLMAKAHPERNFVGIEVHVPGIAQCVYEAGMAGLKNLRVLDADAIQVLREMPDNSINCVQLYFPDPWQKKRHFKRRFVIHERMQLVEQKLELGGTFHAATDWEPYAEWMLDVLDNRPALENLAGKGNSYPRPEWRPQTKFERRGIESGHKINDFIFKKIGS	failed
MVLYIILAIIVIILIAVGVLFYLRSNKRQIIEKAIERKNEIETLPFDQNLAQLSKLNLKGETKTKYDAMKKDNVESTNKYLAPVEEKIHNAEALLDKFSFNASQSEIDDANELMDSYEQSYQQQLEDVNEIIALYKDNDELYDKCKVDYREMKRDVLANRHQFGEAASLLETEIEKFEPRLEQYEVLKADGNYVQAHNHIAALNEQMKQLRSYMEEIPELIRETQKELPGQFQDLKYGCRDLKVEGYDLDHVKVDSTLQSLKTELSFVEPLISRLELEEANDKLANINDKLDDMYDLIEHEVKAKNDVEETKDIITDNLFKAKDMNYTLQTEIEYVRENYYINESDAQSVRQFENEIQSLISVYDDILKEMSKSAVRYSEVQDNLQYLEDHVTVINDKQEKLQNHLIQLREDEAEAEDNLLRVQSKKEEVYRRLLASNLTSVPERFIIMKNEIDHEVRDVNEQFSERPIHVKQLKDKVSKIVIQMNTFEDEANDVLVNAVYAEKLIQYGNRYRKDYSNVDKSLNEAERLFKNNRYKRAIEIAEQVLESVEPGVTKHIEEEVIKQ	failed
